In patent publication US20040248789A1 (TIANJIN FUSOGEN BIOTECH, published 2004):

How the values were obtained:
[1] = biological target: gp41 N-peptide (35-70); assay: CD thermal melting of the peptide complex, 20-95° C.
[2] = biological target: gp41 N-peptide (35-70); assay: Superdex 75 gel filtration; free Fusonex elutes at 17.3 ml
[3] = biological target: HIV-1 gp160HXB (HIV-1, UniProt P04578 512-856); assay: cell-based or functional assay
HIV-1 gp160HXB, sequence (P04578 512-856): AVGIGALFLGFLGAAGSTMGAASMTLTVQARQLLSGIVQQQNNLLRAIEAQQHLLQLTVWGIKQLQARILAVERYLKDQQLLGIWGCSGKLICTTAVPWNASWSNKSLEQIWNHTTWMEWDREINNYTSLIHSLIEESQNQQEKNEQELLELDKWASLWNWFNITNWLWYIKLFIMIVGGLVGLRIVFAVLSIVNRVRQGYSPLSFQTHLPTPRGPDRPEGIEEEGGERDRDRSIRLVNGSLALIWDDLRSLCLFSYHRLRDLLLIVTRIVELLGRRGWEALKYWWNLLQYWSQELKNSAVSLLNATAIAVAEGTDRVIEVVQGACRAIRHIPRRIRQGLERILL

gp41 N-peptide (35-70), sequence (P04578 546-581): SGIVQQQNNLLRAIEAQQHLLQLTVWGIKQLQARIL

## Fusonex (peptide)
[1]
  50% melting temperature of the complex: 70 ° C.
[2]
  elution peak of the complex: 13.2 mL

## T-20 (peptide)
[1]
  50% melting temperature of the complex: 51 ° C.

B1: Fusonex (peptide)
peptide: Ac-SWETWEREIENYTKQIYKILEESQEQQDRNEKDLLE-NH2
[3]
  IC50, cell-cell fusion induced by HIV-1 gp160HXB (luciferase reporter): 1.2 nM
  IC50 relative to T-20, cell-cell fusion induced by HIV-1 gp160HXB: ~0.05 fold of T-20
